Data set [1] can be described thus: Stability in complete cell culture medium (RP-HPLC). The class given is in vitro ADME. To be noted: bovine, complete cell culture medium (RPMI with 10% FBS); 8.6 μM solution in RPMI with 10% FBS, 3 days, 37 °C; read-out: degradation in cell culture medium. The procedure:
The stability of the epothilone-GE11 conjugate 4 in complete cell culture medium was evaluated under conditions resembling those encountered in the cytotoxicity assays. Thus, an 8.6 μM solution of 4 in RPMI with 10% FBS was incubated for 3 days at 37 °C and subsequently analyzed by RP-HPLC. Only minor degradation of 4 (<10%) was observed under these conditions (data not shown).
Synthesis, Microtubule-Binding Affinity and Antiproliferative Activity of New Epothilone Analogs and of an EGFR-Targeted Epothilone-Peptide
Fabienne Zdenka Gaugaz, Andrea Chicca, Mariano Redondo, Isabel Barasoain, José Fernando Díaz, and Karl-Heinz Altmann*
SI.1. EGFR Expression Quantification
EGFR expression levels were determined by treating cells with 1 µg/ml Cetuximab or human IgG isotype antibody and staining with a secondary Alexa Fluor 647 goat anti-human IgG.[49] The fluorescence was quantified by FACS on a FACSCanto device with a FACSDiva software and later analyzed with FlowJo (Fig. S1). […]
Figure S1: Relative quantification of EGF receptors by FACS. […]
The stability of 4 in cell culture medium was evaluated by analytical RP-HPLC. […] The mixture was centrifuged and 10 µL of the supernatant were analyzed by analytical HPLC: H2O with 0.1% TFA (A) / acetonitrile/H2O 8/2 with 0.05% TFA (B). […]

The nature of data set [2]: Glutathione cleavage assay (reductive disulfide cleavage, RP-HPLC). The class given is physicochemical. To be noted: 10 mM GSH. The procedure: The reductive cleavage of conjugate 4 was analyzed under conditions mimicking those found in the endosome and the cytoplasm of cancer cells. Endosome-like conditions were assumed to be reproduced by a 10 mM solution of glutathione (GSH) in acetate and phosphate buffer pH 4.9; cytoplasm-like conditions entailed 10 mM GSH in phosphate buffer pH 7.4.
For cytoplasm-like conditions, 100 µL of a […] solution of conjugate 4 in degassed 100 mM phosphate buffer pH 7.4 were diluted with 400 µL of a degassed phosphate buffer and 500 µL of 20 mM glutathione in 100 mM phosphate buffer pH 7.4. Aliquots of 80 µL were removed at predefined time points, and the reaction was quenched with one volume of 10% metaphosphoric acid, giving a pH of 1 approximately. Fifty microliters of this solution were analyzed by analytical RP-HPLC. The same protocol was used for cleavage under endosome-like conditions, except that the glutathione solution was prepared in a 100 mM acetate buffer at pH 4.8, and the same buffer was also used to dilute the conjugate solution in a 100 mM phosphate buffer at pH 7.4. The final pH of the cleavage solution was 4.9.
Analytical RP-HPLC: H2O with 0.1% TFA (A)/acetonitrile/water 8/2 with 0.05% TFA (B). Linear gradient from 5% B to 80% B over 30 min. The percentage of remaining conjugate in the solutions was plotted against time (Figure 3). Analysis of the cleavage solutions by LC/MS provided information of the fractions of the various components in the redox mixture.
Figure 3 Kinetics of glutathione (GSH)-mediated reduction of epothilone-peptide conjugate 4 (173 µM 4, 10 mM GSH, pH 4.9 (endosome-like conditions), triangles, or pH 7.4 (cytoplasm-like conditions), circles). Conjugate 4 was added to the respective GSH solutions as a solution in phosphate buffer pH 7.4 at room temperature, to reach a total concentration of 173 μM. Samples were quenched at different time points with 10% metaphosphoric acid and analyzed by RP-HPLC. […]

The next data set relates to A431 cells. The data set can be described thus: cells. As to conditions: 72 h incubation, mean of three experiments ± SD; read-out: IC50 A431. The class given is cell-based, human. On the procedure:
(§1) Experiments were performed in RPMI (SW480 cells) or DMEM (HEK293 and A431 cells) medium (Gibco) supplemented with 2 mM glutamine, 10% fetal bovine serum, 100 IU/mL penicillin, 100 µg/mL streptomycin, and 1 µg/mL amphotericin B (all from Sigma) at 37 °C and 5% CO2. Cells were seeded into 96-well microtiter plates and compounds were added in DMSO in serial dilutions in triplicate. The final DMSO (dimethylsulfoxide) concentration was 0.1%. After 72 h, a WST-1 reagent was added and the absorption was measured at 450 nm with a plate reader after 30 min to 4 h. The percentage of viable cells was calculated based on vehicle-treated cells and was plotted in GraphPadPrism. At least three independent experiments were performed.
(§2) A431 cells were obtained from CLS. The other cell lines were available in the laboratory. WST-1 was purchased from Roche.

The subject of a further data set is SW480 cells. Put plainly: cells. The class given is cell-based, human. To be noted: 72 h incubation, mean of three experiments ± SD; read-out: IC50 SW480. On the procedure:
as §1, §2

Another data set concerns HEK293 cells. The data set can be described thus: cells. As to conditions: 72 h incubation, mean of three experiments ± SD; read-out: IC50 HEK293. Format: cell-based, human. The procedure: as §1, §2
Another data set concerns human cancer cells. Set-up: method as in PMID 7757983, PMID 8999970. As to conditions: cited from earlier work.

Read-outs that look alike come from different tables or passages of the source.

One may read the half-life as the time in which the quantity being followed falls by half. By IC50 is commonly meant the concentration needed to halve the response being measured. In the case of `CC[C@H](C)[C@H](NC(=O)[C@@H](NC(=O)[C@H](CC(N)=O)NC(=O)[C@H](CCC(N)=O)NC(=O)[C@@H]1CCCN1C(=O)[C@@H](NC(=O)[C@H](Cc1ccc(O)cc1)NC(=O)CNC(=O)[C@H](Cc1ccc(O)cc1)NC(=O)[C@H](Cc1c[nH]c2ccccc12)NC(=O)[C@H](Cc1c[nH]cn1)NC(=O)[C@H](Cc1ccc(O)cc1)NC(=O)[C@@H](N)CSSCCn1c(C)nc2cc([C@@H]3C[C@@H]4C[C@H]4CCC[C@H](C)[C@H](O)[C@@H](C)C(=O)C(C)(C)CCC(=O)O3)ccc21)[C@@H](C)O)C(C)C)C(N)=O` [compound 4], the metabolised at 72 h, 8.6 μM in data set [1] is below 10%. Moreover, the half-life at 173 µM in data set [2] (acetate and phosphate buffer pH 4.9, read-out: half-life, endosome-like conditions) is 66 s; in data set [2] (phosphate buffer pH 7.4, read-out: estimated half-life, cytoplasm-like conditions), around 12 s. In addition, the “residual conjugate 1 min after addition, cytoplasm-like conditions” value in data set [2] (phosphate buffer pH 7.4, 1 min) is given as “no residual conjugate was detectable”. Also, the IC50 in the data set with A431 cells was 0.0747 ± 0.00665 µM; in the data set on SW480 cells, 0.181 ± 0.0259 µM; with HEK293 cells it was 0.0311 ± 0.00621 µM.

`C/C(=C\c1csc(C)n1)[C@@H]1C[C@@H]2O[C@]2(C)CCC[C@H](C)[C@H](O)[C@@H](C)C(=O)C(C)(C)[C@@H](O)CC(=O)O1` [Epo B, Epothilone B]: the “IC50 values for most cell lines” value in the data set on human cancer cells is listed as “sub-nanomolar”.

Values taken from paper PMC6429585, “Synthesis, Microtubule-Binding Affinity, and Antiproliferative Activity of New Epothilone Analogs and of an EGFR-Targeted Epothilone-Peptide Conjugate” (International Journal of Molecular Sciences, 2019).
